Source: the supplement of paper PMC9732359
± gives the uncertainty stated by the source.

Assay: protein stability index of a GFP-peptide fusion (yeast GPS) (PSI 1-4); higher = more stable; sorted into four equal gates, so the index is relative within each strain
How it was run: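 Each library plasmid carries Cherry plus GFP with a tiled 17-residue yeast protein peptide fused downstream, and the pooled library was carried in yeast. Mid-log cultures in leucine-free medium were sorted into four equal gates by GFP/Cherry ratio. Reads from Illumina sequencing of PCR-amplified plasmids from each gate were assigned to strains by barcodes. Per peptide, the protein stability index was computed as the summed products of gate read frequency and gate number.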

Sequence	protein stability index (doa10∆)	protein stability index (pdr5∆)	protein stability index (san1∆)	protein stability index (ubr1∆)
PAGQATQKRTHVLKKNP [RPL4A]	2.95 ± 0.22	3.21 ± 0.21	3.28 ± 0.22	2.74 ± 0.14
TFSGALGKQSSSLLSRL [FAS2]	3.33 ± 0.097	3.23 ± 0.087	3.22 ± 0.065	2.93 ± 0.073
AAEQQSKAFKESSDFGA [SRP54]	2.8 ± 0.057	2.3 ± 0.049	2.58 ± 0.082	2.34 ± 0.057
DNLLLNLEQINEDLEDG [REC8]	2.81 ± 0.056	2.67 ± 0.066	2.71 ± 0.08	3.07 ± 0.061
FRSLFFRSYMDQEKKYG [RPB2]	1.7 ± 0.051	2.14 ± 0.07	2.61 ± 0.078	2.57 ± 0.038
SYNWGAKAKRRHTTGTG [RPL37A]	3.37 ± 0.097	3.15 ± 0.055	3.13 ± 0.078	3.34 ± 0.043
NTSESLLVDIQKYNQIQ [SMC2]	1.71 ± 0.07	1.84 ± 0.066	1.66 ± 0.15	1.68 ± 0.048
APLAKVVFRDPYKYRLR [RPL2A]	2.93 ± 0.098	3.16 ± 0.1	3.07 ± 0.06	3.13 ± 0.062
FEQKGSQTTTNDSKEES [YLR335W/NUP2]	3.27 ± 0.12	3.13 ± 0.077	2.98 ± 0.11	3.23 ± 0.05
AQAQAQAQAQVYAQQST [PGD1]	2.87 ± 0.053	3.05 ± 0.052	2.97 ± 0.045	3.01 ± 0.044
DTFLPPPPPPPSNFEIN [PRP8]	2.6 ± 0.039	2.57 ± 0.039	2.34 ± 0.04	2.33 ± 0.032
TEGEPKKKRGFLGLFGR [SRP68]	3.17 ± 0.094	3.46 ± 0.093	2.92 ± 0.068	3.01 ± 0.06
QDHFHRLNYLYQISAYQ [RPR2]	2 ± 0.041	2.43 ± 0.04	2.42 ± 0.044	2.43 ± 0.026
DFPELKPYKQVKQIAPA [FAS2]	2.29 ± 0.066	2.46 ± 0.069	2.58 ± 0.07	2.66 ± 0.057
PDAKIQVRRDIPSAAFN [YMR129W/POM152]	2.17 ± 0.061	1.89 ± 0.098	1.63 ± 0.11	3.24 ± 0.088
CLEACSFILSSLEDPQV [YDL116W/NUP84]	2.68 ± 0.048	2.71 ± 0.054	2.87 ± 0.038	2.75 ± 0.042
DQKIWPYLEKYPEYDQI [SSN3]	3.5 ± 0.12	3.08 ± 0.09	3.11 ± 0.065	3.43 ± 0.1
MSTKAQNPMRDLKIEKL [RPL11B]	3.36 ± 0.16	3.25 ± 0.11	3.46 ± 0.11	3.6 ± 0.23
SLNLTDDVISNAGTNDN [MCD1]	2.88 ± 0.047	2.97 ± 0.057	3.11 ± 0.036	2.96 ± 0.041
LTSDLVYFGDENKVMLP [RRI2]	3.21 ± 0.093	3.34 ± 0.089	3.07 ± 0.076	3.03 ± 0.068
NNHNDSNRLHPPDIHPN [GRR1]	2.76 ± 0.046	2.82 ± 0.044	2.8 ± 0.039	2.77 ± 0.035
TVPEYLKTADNRDRSFQ [PGD1]	3.08 ± 0.084	3.07 ± 0.079	3.3 ± 0.038	3.07 ± 0.049
LVAIFGGQGNTDDYFEE [FAS1]	3.15 ± 0.12	3.48 ± 0.083	3.26 ± 0.065	3.23 ± 0.064
PNRITLTDHRKETWLHE [SRB8]	2.8 ± 0.082	3.03 ± 0.086	3.17 ± 0.07	3.22 ± 0.068
FEYSKYRPLTPSSEVYS [RRP6]	3.07 ± 0.086	3.01 ± 0.071	2.87 ± 0.053	2.83 ± 0.056
LPTRGTLESLENLVVAD [COR1]	2.83 ± 0.059	3.04 ± 0.053	2.84 ± 0.057	2.89 ± 0.042

Sequence	protein stability index (doa10∆)	protein stability index (pdr5∆)	protein stability index (san1∆)	protein stability index (ubr1∆)
ESAPITAEDSWAVISAF [RPB2]	3.17 ± 0.08	2.99 ± 0.062	2.91 ± 0.051	2.99 ± 0.06
NYFVDTDLKKIIKANQL [RET1]	2.88 ± 0.058	2.85 ± 0.066	3.01 ± 0.044	2.53 ± 0.036
VGLVMFSQFWYWFPLAH [RPN2]	1.52 ± 0.078	1.39 ± 0.072	1.66 ± 0.17	1.41 ± 0.051
ELSFYILYSFKLSGKLL [YML103C/NUP188]	1.47 ± 0.043	1.49 ± 0.04	1.49 ± 0.081	1.74 ± 0.037
AGGAADCQFWETWLGSQ [PRE2]	3.19 ± 0.18	3.19 ± 0.15	2.97 ± 0.09	3.77 ± 0.13
PTLGERLDNLQDIKKAK [DSN1]	1.54 ± 0.082	1.25 ± 0.041	2.71 ± 0.085	2.86 ± 0.064
EDDSSNSCFSDGSQQNL [REC8]	3.7 ± 0.22		3.65 ± 0.12	3.32 ± 0.1
EGIKETQAKRIFLQQFL [SWI1]	2.37 ± 0.12	2.75 ± 0.14	2.74 ± 0.086	2.26 ± 0.066
FDDLLKPVYKGKKLTDE [RET1]		2.85 ± 0.27	3.32 ± 0.12	
CSKAMGDLASLVLLNGR [RPP1]	2.84 ± 0.061	2.9 ± 0.05	2.62 ± 0.058	2.73 ± 0.037
REKYNMKGPAALWDVQF [ARP9]	3.49 ± 0.073	3.59 ± 0.08	3.49 ± 0.062	3.45 ± 0.064
LVQLFLWDSKELEQLVE [RPN3]	2.64 ± 0.13	2.78 ± 0.084	2.08 ± 0.28	2.85 ± 0.083
LIIIAANTPVLRKSELE [RPL30]	2.2 ± 0.11	2.68 ± 0.14	2.31 ± 0.094	2.77 ± 0.13
ISWCSLSETNGLHKFVK [PRE10]	2.38 ± 0.089	2.73 ± 0.12	2.82 ± 0.11	2.44 ± 0.11
EFLKWTPNVNVLVLHGD [ISW2]	1.69 ± 0.064	1.69 ± 0.06	1.53 ± 0.12	1.84 ± 0.082
SKLNELKKELKLLAKEL [SMC2]	2.92 ± 0.11	2.9 ± 0.12		3.09 ± 0.15
SEILSFDPVYTTVITVF [YML103C/NUP188]	2.08 ± 0.059	2.27 ± 0.051	1.6 ± 0.11	1.62 ± 0.048
FMDETAVALAASDLVLI [SNU114]	2.55 ± 0.062	2.74 ± 0.076	2.69 ± 0.11	2.21 ± 0.051
ESQEKYMEPFDLDLNEQ [NSL1]	3.29 ± 0.068	3.21 ± 0.057	3.35 ± 0.041	3.3 ± 0.045
REQYETQVALNESEKDQ [UBP6]	3.1 ± 0.069	2.66 ± 0.065	2.69 ± 0.067	2.91 ± 0.051
HPAYLFKGLETPLKARQ [YLR018C/POM34]	2.16 ± 0.073	2.26 ± 0.057	1.36 ± 0.077	2.08 ± 0.043
YDSRPLEEDSKKVNGTS [PRP8]	2.99 ± 0.23	3.53 ± 0.17	3.21 ± 0.098	2.94 ± 0.11
TNTHPNFLSKIRNINVQ [SNF2]	1.44 ± 0.049	1.68 ± 0.063	1.49 ± 0.09	1.34 ± 0.031
LRIVKPTVSLTINLDRF [RPC82]	2.29 ± 0.068	2.29 ± 0.054	2.46 ± 0.063	2.43 ± 0.11
WEISNPDFLSKYSAITS [NUT1]	1.54 ± 0.045	2.06 ± 0.044	1.51 ± 0.073	1.59 ± 0.041
GHVKPVRCVNCSKSIPK [RPS26A]	2.8 ± 0.1	2.7 ± 0.11	2.16 ± 0.19	3.06 ± 0.14
